# Changes are numbered by the printed parent chain. Numbers in names are those of the source.
# T1: GDF11 (Homo sapiens, UniProt O95390)
# T1 sequence (O95390 299-407): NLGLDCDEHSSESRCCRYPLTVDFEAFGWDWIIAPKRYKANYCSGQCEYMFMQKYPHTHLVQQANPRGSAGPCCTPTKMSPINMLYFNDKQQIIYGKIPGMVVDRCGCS
# T2: activin A (Homo sapiens, UniProt P08476)
# T2 sequence (P08476 311-426): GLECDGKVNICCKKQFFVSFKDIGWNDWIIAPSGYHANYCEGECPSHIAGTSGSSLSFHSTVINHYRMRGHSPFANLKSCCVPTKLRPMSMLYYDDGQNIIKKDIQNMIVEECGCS
# T3: ActA (Homo sapiens, UniProt P08476)
# T3 sequence (P08476 311-426): T2 sequence (P08476 311-426)
# B1: R64 A24N 20-119: ActRIIB-Fc variation R64 A24N, amino acids 20-119 of SEQ ID NO:1 (protein)
# chain: GRGENETRECIYYNANWELERTNQSGLERCEGEQDKRLHCYASWRNSSGTIELVKKGCWLDDFNCYDRQECVATEENPQVYFCCCEGNFCNERFTHLPEA
# modifications: Fc fusion partner not cited
# B2: R64 A24N K74A 20-119: ActRIIB-Fc variation R64 A24N K74A, amino acids 20-119 of SEQ ID NO:1 (protein)
# chain: B1 chain with K55A
# modifications: Fc fusion partner not cited
# B3: R64 20-129: ActRIIB-Fc R64, amino acids 20-129 of SEQ ID NO:1 (protein)
# chain: GRGEAETRECIYYNANWELERTNQSGLERCEGEQDKRLHCYASWRNSSGTIELVKKGCWLDDFNCYDRQECVATEENPQVYFCCCEGNFCNERFTHLPEAGGPEVTYEPP
# modifications: Fc fusion partner not cited
# B4: R64 P129S P130A 20-134: ActRIIB-Fc variation R64 P129S P130A, amino acids 20-134 of SEQ ID NO:1 (protein)
# chain: GRGEAETRECIYYNANWELERTNQSGLERCEGEQDKRLHCYASWRNSSGTIELVKKGCWLDDFNCYDRQECVATEENPQVYFCCCEGNFCNERFTHLPEAGGPEVTYEPSATAPTGGGTHTCPPCPAPELLGGPSVFLFPPKPKDTLMISRTPEVTCVVVDVSHEDPEVKFNWYVDGVEVHNAKTKPREEQYNSTYRVVSVLTVLHQDWLNGKEYKCKVSNKALPVPIEKTISKAKGQPREPQVYTLPPSREEMTKNQVSLTCLVKGFYPSDIAVEWESNGQPENNYKTTPPVLDSDGSFFLYSKLTVDKSRWQQGNVFSCSVMHEALHNHYTQKSLSLSPGK
# B5: A64 20-134: ActRIIB-Fc with alanine at position 64, amino acids 20-134 of SEQ ID NO:1 (protein)
# chain: GRGEAETRECIYYNANWELERTNQSGLERCEGEQDKRLHCYASWANSSGTIELVKKGCWLDDFNCYDRQECVATEENPQVYFCCCEGNFCNERFTHLPEAGGPEVTYEPPPTAPT
# modifications: Fc fusion partner not cited
# B6: R64N 20-134: ActRIIB-Fc variation R64N, amino acids 20-134 of SEQ ID NO:1 (protein)
# chain: B5 chain with A45N
# modifications: Fc fusion partner
# B7: R64 L79P K74A 20-134: ActRIIB-Fc variation R64 L79P K74A, amino acids 20-134 of SEQ ID NO:1 (protein)
# chain: B5 chain with A45R, K55A, L60P
# modifications: Fc fusion partner not cited
# B8: R64 L79P 20-134: ActRIIB-Fc variation R64 L79P, amino acids 20-134 of SEQ ID NO:1 (protein)
# chain: B5 chain with A45R, L60P
# modifications: Fc fusion partner not cited
# B9: D80G: soluble ActRIIB-Fc variant, as reported in WO2006/012627 (protein)
# chain: SGRGEAETRECIYYNANWELERTNQSGLERCEGEQDKRLHCYASWANSSGTIELVKKGCWLGDFNCYDRQECVATEENPQVYFCCCEGNFCNERFTHLPEA
# modifications: left off: a dimerising Fc or GST
# B10: WT (64A): soluble ActRIIB-Fc, wild type with 64A, as reported in WO2006/012627 (protein)
# chain: B9 chain with G62D
# modifications: left off: a dimerising Fc or GST
# B11: F82A: soluble ActRIIB-Fc variant, as reported in WO2006/012627 (protein)
# chain: B9 chain with G62D, F64A
# modifications: left off: a dimerising Fc or GST
# B12: D80N: soluble ActRIIB-Fc variant, as reported in WO2006/012627 (protein)
# chain: B9 chain with G62N
# modifications: left off: a dimerising Fc or GST
# B13: D80M: soluble ActRIIB-Fc variant, as reported in WO2006/012627 (protein)
# chain: B9 chain with G62M
# modifications: left off: a dimerising Fc or GST
# Molecular target: T1, GDF11
# Test: A-204 reporter gene assay, pGL3(CAGA)12 luciferase
# Type: cell-based
# Settings: Table 9; cell-based A-204 assay
# Excerpt: (§1) An A-204 reporter gene assay was used to evaluate the effects of ActRIIB-Fc proteins and ActRIIB variant Fc fusion polypeptides on signaling by GDF-11 and activin A. Cell line: human rhabdomyosarcoma (derived from muscle). Reporter vector: pGL3(CAGA)12 (described in Dennler et al, 1998, EMBO 17: 3091-3100). The CAGA12 motif is present in TGF-beta responsive genes (e.g., PAI-1 gene), so this vector is of general use for factors signaling through SMADs.
# (§2) Day 1: Split A-204 cells into 48-well plate.
# (§3) Day 2: A-204 cells transfected with 10 ug pGL3(CAGA)12 or pGL3(CAGA)12(10 ug)+pRLCMV (1 pg) and Fugene.
# (§4) Day 3: Add factors (diluted into medium+0.1% BSA). Inhibitors need to be preincubated with factors for 1 hr before adding to cells. Six hrs later, cells were rinsed with PBS and lysed.
# (§5) This is followed by a luciferase assay.
# (§6) Activity of ActRIIB-Fc proteins and ActRIIB variant Fc fusion polypeptides was tested in a cell-based assay as described above. Some variants were tested in different C-terminal truncation constructs. As discussed above, truncations of five or fifteen amino acids caused reduction in activity. […]
row,Molecule,GDF11 Inhibition Activity
1,B1,++ (Moderate activity (roughly 1 × 10^−7 KI))
2,B2,+ (Poor activity (roughly 1 × 10^−6 KI))
3,B3,+++ (Good (wild-type) activity (roughly 1 × 10^−8 KI))
4,B4,+++ (Good (wild-type) activity (roughly 1 × 10^−8 KI))
5,B5,+ (Poor activity (roughly 1 × 10^−6 KI))
6,B6,+ (Poor activity (roughly 1 × 10^−6 KI))
7,B7,+ (Poor activity (roughly 1 × 10^−6 KI))
8,B8,+ (Poor activity (roughly 1 × 10^−6 KI))

# Molecular target: T2, activin A
# Test: A-204 reporter gene assay, pGL3(CAGA)12 luciferase
# Type: cell-based
# Settings: Table 9; cell-based A-204 assay
# Excerpt: as §1, §2, §3, §4, §5, §6
row,Molecule,Activin Inhibition Activity
1,B1,++ (Moderate activity (roughly 1 × 10^−7 KI))
2,B2,+ (Poor activity (roughly 1 × 10^−6 KI))
3,B3,+++ (Good (wild-type) activity (roughly 1 × 10^−8 KI))
4,B4,+++ (Good (wild-type) activity (roughly 1 × 10^−8 KI))
5,B5,+ (Poor activity (roughly 1 × 10^−6 KI))
6,B6,+ (Poor activity (roughly 1 × 10^−6 KI))
7,B7,+ (Poor activity (roughly 1 × 10^−6 KI))
8,B8,+ (Poor activity (roughly 1 × 10^−6 KI))

# Molecular target: T3, ActA
# Test: not given
# Parameters: key to ActA binding relative to WT: *: No observed binding; −−: <⅕ WT binding; −: ~½ WT binding; +: WT; ++: <2x increased binding; +++: ~5x increased binding; ++++: ~10x increased binding; +++++: ~40x increased binding
# Settings: Table 11, reproduced from WO2006/012627; cited from earlier work
row,Molecule,ActA binding relative to WT
1,B9,*
2,B10,(+)
3,B11,++ (<2x increased binding)
4,B12,*
5,B13,*

# Molecular target: T1, GDF11
# Test: not given
# Parameters: key: *: No observed binding; −−: <⅕ WT binding; −: ~½ WT binding; +: WT; ++: <2x increased binding; +++: ~5x increased binding; ++++: ~10x increased binding; +++++: ~40x increased binding
# Settings: Table 11, reproduced from WO2006/012627; cited from earlier work
row,Molecule,GDF11 binding relative to WT
1,B9,*
2,B10,(+)
3,B11,− (~½ WT binding)
4,B12,*
5,B13,*

# — US20230129812A1, “COMPOSITIONS AND METHODS FOR TREATING PULMONARY HYPERTENSION” (Acceleron Pharma Inc., priority 2020, published 2023)
